Titration against 2.0 nM thrombin in presence of 200 µM D-Val-Leu-Arg-p-nitroanilide: fraction of active molecules and inhibition of α-thrombin digesting Chromozym TH data for one substance are collected here from US5661001.

One experiment has as its target human thrombin (human) (UniProt P00734).

As for [Cys^33 ]HV1--[Cys^33 ]HV1 dimer, the titration against 2.0 nM thrombin in presence of 200 µM D-Val-Leu-Arg-p-nitroanilide: fraction of active molecules with human thrombin (human) is 0.97. Moreover, in the experiment with α-thrombin, the inhibition of α-thrombin digesting Chromozym TH is 82%.
